Test: soluble on expression in E. coli; label from the status in PepcDB or PDB records

| Sequence | soluble on expression in E. coli |
| --- | --- |
| MNKHERLDEIAKLVNKKGTIRTNEIVEGLNVSDMTVRRDLIELENKGILTKIHGGARSNSTFQYKEISHKEKHTRQIAEKRYIARKAASLIEDGDTLFFGPGTTVELLAEEVNHHTLTIITNCLPVYKILLEKQTAHFRVYLIGGEMRHITEAFVGEMANAMLEKLRFSKMFFSSNAVNKGAVMTSTLDEAYTQQLALSNSIEKYLLIDHTKVGKEDFTSFCQLNELTAVVMDYEDEEKVETIKTYIEVVDLEHHHHHH | soluble |
| MNKKKFENLPKWNNFALFNFLAKDKENSLEVMVAARGFAVPGIVATNYETAEEAANVVKELQTTAEVISVGLGGGGDWQNWRDVLHIARLAPNSHINQPIETAGLTNGLLPETYTNALVRPTGKVGIVKLSSGDEITAEEAVDYCLSANIPSIKFMSIEGTKYLDELVYLTKIAADKGIYGIEPAGGIGADNILEITTAIKSTGIPFYMPHIFGKTIDKATGRTKPEEIEKIFAALEGN | soluble |
| MNKRNTQQRRHSIISILNEQGEVSVDELSLRFETSEVTIRKDLAELEKTGLLLRRYGGAVAIPDEVTQQFSAKIAPNKLSIAKAAAQLIKDHNRIIIDSGTTTSGLIAELNQKRGLVVMTNALHLANAIHELENEPTLLMTGGTWDPHSESFQGQVAEQVLRSYNFDQLFIGADGIDLARGTTTFNELTGLSKVMAEVSREVIVMVDSDKIGKRIPNLELPWSKISVLVTDARIEESALKQITEQGVKVILAPYSPLEHHHHHH | soluble |
| MNKTLIAAAVAGIVLLASNAQAQTVPEGYQLQQVLMMSRHNLRAPLANNGSVLEQSTPNKWPEWDVPGGQLTTKGGVLEVYMGHYMREWLAEQGMVKSGECPPPYTVYAYANSLQRTVATAQFFITGAFPGCDIPVHHQEKMGTMDPTFNPVITDDSAAFSEQAVAAMEKELSKLQLTDSYQLLEKIVNYKDSPACKEKQQCSLVDGKNTFSAKYQQEPGVSGPLKVGNSLVDAFTLQYYEGFPMDQVAWGEIKSDQQWKVLSKLKNGYQDSLFTSPEVARNVAKPLVSYIDKALVTDRTSAPKITVLVGHDSNIASLLTALDFKPYQLHDQNERTPIGGKIVFQRWHDSKANRDLMKIEYVYQSAEQLRNADALTLQAPAQRVTLELSGCPIDADGFCPMDKFDSVLNEAVK | soluble |
| MNKVLINDTTLRDGEQAAGVVFTLEEKVAIAKFLDTIGVPELEVGIPAMGEEEMRAICAISNLGLKANLLAWNRAVISDIKASVACGMERVHIAIPVSGIQIAAKFHGQWRVSLQRLKDCISFAVDQGLWVAVGGEDSSRADENFLLDVALYAQEWGASRFRFCDTVGVLDPFTTYGKVKLLVSALTIPVEVHTHNDFGMATANALAGIKAGASSVNTTVIGLGERAGNAALEEVVMAIKRIYGVDMGIDTPRLLELSQLVAAASGANVPPWKAIVGENTFAHESGIHAHGVLQNPDTYEPFAPEEVGWERRLVVGKHSGRHSVSNLLEQHGIFLNPEETQSVLDAVRQQSIKKKRSLTTEELLNLVKEQR | not soluble |
| MNLAGSTIQAYRQRKIESLAKMSNMSQDDVTTGLRTVQQGLEALREEHSTISNTLETSVKGVKEDEAPLPKQKLSQINDNLDKLVCGVDETSLMLMVFQLTQGMDAQHQKYQAQRRRLCQENAWLRDELSSTQIKLQQSEQMVAQLEEENKHLKYMASIKQFDDGTQSDTKTSVDVGPQPVTNETLQELGFGPEDEEDMNASQFNQPTPANQMAASANVGYEIPARLRTLHNLVIQYASQGRYEVAVPLCKQALEDLEKTSGHDHPDVATMLNILALVYRDQNKYKEAANLLNEALSIREKCLGESHPAVAATLNNLAVLFGKRGKFKDAEPLCKRALEIREKVLGDDHPDVAKQLNNLALLCQNQGKYEEVEKYYKRALEIYESKLGPDDPNVAKTKNNLSSAYLKQGKYKEAEELYKQILTRAHEREFGQISGENKPIWQIAEEREENKHKGEGATANEQAGWAKAAKVDSPTVTTTLKNLGALYRRQGKYEAAETLEDVALRAKKQMSESRRMERSVMY | not soluble |
| MNLDDKALFLDAMEDVQPLKRHTDVHWQPTRNLKTPQRIDTLQLDNFLTTGFLDILPLNEPLEFRREGLQQGVIDKLRSGKYPQQASLNLLRQPVETCRKMLFRFILEAQKEGLRNVLIIHGKGREAKSHANIVRSYVARWLTEFEDVQAYCSALPHHGGGGACYVALRKTVQAKQDNWERHAKRSR | not soluble |
| MNLGDLTNFVEKPLAAVSNIVNTPNSAGRYRPFYLRNLLDAVQGRNLNDAVKGKVVLITGGSSGIGAAAAKKIAEAGGTVVLVARTLENLENVANDIRAIRGNGGTAHVYPCDLSDMDAIAVMADQVLGDLGGVDILINNAGRSIRRSLELSYDRIHDYQRTMQLNYLGAVQLILKFIPGMRERHFGHIVNVSSVGVQTRAPRFGAYIASKAALDSLCDALQAETVHDNVRFTTVHMALVRTPMISPTTIYDKFPTLTPDQAAGVITDAIVHRPRRASSPFGQFAAVADAVNPAVMDRVRNRAFNMFGDSSAAKGSESQTDTSELDKRSETFVRATRGIHW | soluble |
| MNLHQTVEHEAAAAFAAAGIAGSPVVLQPTKNAEHGDFQINGVMGAAKKAKQNPRELAQKVADALAGNAVIESAEVAGPGFINLRLRHEFLAQNIHAALNDARF | not soluble |
| MNLIDYKARERGIEVEMPDERGTSSSCSVCGHEDEDSRVERGLWKCDCCGIVAHGDVNGADNIRQKTLPVTPPLGGSGNGCLAQPCVIQFSRTRGFQPRAPAELEHHHHHH | soluble |
| MNLKDMEQNSAKAVVLLKAMANERRLQILCMLHNQELSVGELCAKLQLSQSALSQHLAWLRRDGLVTTRKEAQTVYYTLKSEEVKAMIKLLHSLYCEE | soluble |
| MNLNFIVPDINMTFGDMKFMGLNRERYVYDRENNKRTDVLESRIYNIASAVQGGQIEVTIPEYAGAKEIPPFADIELKNPKISAMATSQRDSTYANVMWKLEADDIVVKGGSSVKPAAATGGNEKKLEHHHHHH | not soluble |
| MNLNKNLPTGTRDKLFREARASYQIEQQVNHYFAKRGFKRIETPVIEFEDVFSSEHQADAKLYRFFDEKGRLTVLRPDMTLPIGRVVSTTGVTLPLKLSYSGKIFRANEDFGGEQNEQTQAGIEIIGYPSIKAEIECILSGIGVLNALEIPNFQIELGHAAIYRRVIHLLNLPETAEMDFRLLIQNKSLTGIQQFVTENPSTLDDFILALPRLFGPATTILKQAKNLTTDKGILTALTEMETIVDAVSYAADISVDLGLVQDFHYYTGIIFRGYADLAADNFLSGGRYDHLLEQFTSSSSPAVGLALNLDSLTT | not soluble |
| MNLPDGTQLVVGRQLAKVKSNQNWIRIPEYKVRGNKVIISHLWVGSINMPRRPFWSFRELWEKHLGRKDAINVWSRIRSYNTQVLLKILELLEKEPETQAKKLVKRATMHQLRNIAESFEEL | not soluble |
| MNLSEITQQMGEVGKTLSDSVPELLNSTDLVNDPEKMLELQFAVQQYSAYVNVESGMLKTIKDLVSTISNRSF | not soluble |
| MNLVPPKEEENLIVFNKQLGEDRRIVMSRSNLNELLKALEENELLCTDLYQVNTDGVILTKQRAEKVIGWARNHYLSSCPSPSIKEGRLILPRESIEISVKRLKAQEDISRKPTQNLKRFLFLQNIAKDEFETNFVSAVVAPGEIGVKFDDIGALEHVKKTLNELVILPMRRPELFTRGNLLRPCKGILLFGPPGTGKTLLAKALATEAGANFISITGSTLTSKWFGDAEKLTKALFSFASKLAPVIIFVDEVDSLLGARGGAFEHEATRRMRNEFMAAWDGLRSKDSQRILILGATNRPFDLDDAVIRRLPRRIYVDLPDAENRLKILKIFLTPENLETGFEFDKLAKETEGYSGSDLKNLCIAAAYRPVQELLQEENKDSVTNASPDLRPLSLDDFIQSKAKVSPSVAYDATTMNELRKWNEQYGEGGTRTKSPFGF | soluble |
| MNMKNELHVISNGHMPFEELVNVAMQIESEIDYLHIREREKSTKELYEGVESLLMEGFPASKIVINDRIDIAILLNIPRVQLGYRSTDVKSVKEKFSYLHVGYSVHSLDEAIVAFKNGADSLVYGHVFPTDCKKGVPARGLEEISDIARCLSIPITAIGGITPENTVDVLTNGVSGIAVMSGIVSSSNPYSKAKSYKESIRKWAEKHV | not soluble |
| MNMNAKIIDQDNKGIGVRVHDNDETEHTVAVGFDGEIQGHSQDGYPDDPAKRTGKENEYVSQARRYAKYYVAKEKGYDVLPWDRDTAAMQRVQTAIESLSDEDFEKYFGTYFDQINSRLPNVTAPVPEPDAVGDDEFVLYLLDVYLDEAGRIEAVSDIHFLYLDDNRERQVVLGDQPLNRDPDARLQLKPNYLPSLEVAQEFFVYHLRCQIRDCYLLRGEEPPEQYRVIGPGLYDAATRYLYEDRPYRPYHKLHADIPGYSLEFDYGFGEQGKEMAKIAGAVADNK | not soluble |
| MNNDHLDPINSLNVPELADTTFAMDFLIRAKEGVRNTAVALTETASPDVRALLRKQLMQGIAMHQEITELMISKKWFHPYELSEQYKLDQLSAKNTIMVGNMNLFPDETNRKGMFDRTPDEHMAGDPLEHHHHHH | not soluble |
| MNNGFFNSDFDSIFRRMMKDMQGSNQVGNKKYYINGKEVSPEELAQLTQQGGNHSAEQSAQAFQQAAQRQQGQQGGNGNYLEQIGRNLTQEARDGLLDPVIGRDKEIQETAEVLSRRTKNNPILVGEAGVGKTAIVEGLAQAIVEGNVPAAIKDKEIISVDISSLEAGTQYRGAFEENIQKLIEGVKSSQNAVLFFDEIHQIIGSGATGSDSGSKGLSDILKPALSRGEISIIGATTQDEYRNNILKDAALTRRFNEVLVNEPSAKDTVEILKGIREKFEEHHQVKLPDDVLKACVDLSIQYIPQRLLPDKAIDVLDITAAHLSAQSPAVDKVETEKRISELENDKRKAVSAEEYKKADDIQNEIKSLQDKLENSNGEHTAVATVHDISDTIQRLTGIPVSQMDDNDIERLKNISNRLRSKIIGQDQAVEMVSRAIRRNRAGFDDGNRPIGSFLFVGPTGVGKTELAKQLAIDLFGNKDALIRLDMSEYSDTTAVSKMIGTTAGYVGYDDNSNTLTEKVRRNPYSVILFDEIEKANPQILTLLLQVMDDGNLTDGQGNVINFKNTIIICTSNAGFGNGNDAEEKDIMHEMKKFFRPEFLNRFNGIVEFLHLDKDALQDIVNLLLDDVQVTLDKKGITMDVSQDAKDWLIEEGYDEELGARPLRRIVEQQVRDKITDYYLDHTDVKHVDIDVEDNELVVKGK | not soluble |
| MNNHFKCIGIVGHPRHPTALTTHEMLYRWLCTKGYEVIVEQQIAHELQLKNVKTGTLAEIGQLADLAVVVGGDGNMLGAARTLARYDIKVIGINRGNLGFLTDLDPDNAQQQLADVLEGHYISEKRFLLEAQVCQQDCQKRISTAINEVVLHPGKVAHMIEFEVYIDEIFAFSQRSDGLIISTPTGSTAYSLSAGGPILTPSLDAITLVPMFPHTLSARPLVINSSSTIRLRFSHRRNDLEISCDSQIALPIQEGEDVLIRRCDYHLNLIHPKDYSYFNTLSTKLGWSKKLFMAGDPLEHHHHHH | soluble |
| MNNIRLLNQNDLDSYIELMKFGHHNYEWDRYYLENVSIDRLKTILSNHTDYWNIFGAFEDDELVATCTLKQMNYVGKCHKAILENNFVKNNDEIVNRELINHIIQYAKEQNIETLMIAIASNNISAKVFFSSIGFENLAFEKNASKIGNEYFDENWLIYSTTE | not soluble |
| MNNNDVLRKLRYTFNFNDKQMVAIFASAGEEVSREQVSQWLKKDTDSDFVALFDTKLAVFLNGFINEKRG | not soluble |
